{"source": "patent US8975044B2", "about": "“Polynucleotides encoding for frizzled-binding agents and uses thereof” (OncoMed Pharmaceuticals, Inc., priority 2008, dated 2015)", "key": {"PN4 tumors": {"tested_on": "PN4 tumors", "assay": "Alcian blue staining of treated PN4 tumor sections", "type": "in vivo, mice", "settings": "relative to controls and the gemcitabine alone group; data not shown", "description": "Another characteristic of endocrine, secretory or ductal cells is the production of mucin and these cells can be detected by alcian blue staining (van Es et al. 2005. Nature 435 959-63). It was observed during harvesting and processing of tumors that the 18R5 treated tumors were much more mucinous than control treated tumors. Therefore, PN4 tumors sections from mice treated with control antibody, gemcitabine alone, 18R5 alone, or 18R5 plus gemcitabine were stained with alcian blue."}, "[1]": {"tested_on": "OMP-LU33 human lung tumors", "assay": "OMP-LU33 lung tumor xenograft growth", "type": "in vivo, NOD-SCID mice", "settings": "antibodies 10 mg/kg IP twice per week", "method": "10,000 OMP-LU33 human lung tumor cells were injected subcutaneously in NOD-SCID mice. Tumors were allowed to grow for 30 days until they reached an average volume of 124 mm^3. The animals were randomized into 4 groups (n=10 per group) and treated with either control antibody (squares), Avastin® (triangles pointing down), anti-FZD 18R5 (triangles pointing up), or the combination of 18R5 plus Avastin® (circles)."}, "ACTA2": {"tested_on": "ACTA2", "assay": "ACTA2 gene expression in treated OMP-PN4 tumors by microarray", "type": "in vivo, NOD/SCID mice", "settings": "10 mg/kg once a week for 6 weeks; tumor stroma", "method": "As described in Example 7 above, OMP-PN4 tumor-bearing NOD/SCID mice were treated with control Ab (LZ-1), 18R5, gemcitabine, or the combination of 18R5 and gemcitabine once a week for 6 weeks. The antibodies were administered at a concentration of 10 mg/kg. After they were harvested, the tumors from that experiment were analyzed for the expression of Wnt target genes at both the RNA and protein levels, using microarray and IHC, respectively.\nTotal RNA was extracted from the tumors, amplified, and subjected to microarray analysis. Total RNAs were amplified using the Ovation RNA Amplification System V2 (NuGEN, San Carlos, Calif.). Resulting amplified, antisense ss-cDNA was fragmented and biotinylated using the FL-Ovation cDNA Biotin Module V2 (NuGEN) for use on Affymetrix chips. Affymetrix HG-U133 plus 2 or MG 430 2.0 oligonucleotide microarrays were used in these experiments (performed at Almac Diagnostics, Durham, N.C.). […] The quality of the cDNA and the fragmented cDNA were assessed by spectrophotometer and the Bioanalyzer before the array hybridization. The scanned raw chip data were quantified and scaled using the GCOS software package (Affymetrix) and subjected to a comprehensive assessment of Gene Chip Quality Control recommended by Affymetrix to detect any chips defects and outliers, which were excluded from the subsequent data analysis. […]"}, "OMP-PN13 cells": {"tested_on": "OMP-PN13 cells", "assay": "Tumorgenic potential of Muc16-positive cells sorted from 18R5-treated OMP-PN13 tumors", "type": "in vivo, NOD/SCID mice", "settings": "75 cells per mouse, 10 mice; no tumor from Muc16+ cells, 7 of 10 from Muc16− cells", "method": "OMP-PN13-bearing mice were treated with 18R5 according to the protocol described in Example 21. Mice were euthanized 12 days after initiation of the Ab treatment. Tumors were harvested and processed to obtain a single cell suspension using collagenase III to digest the tissues. Mouse stromal cells were stained with a biotinylated anti-H-2 Kd antibody and a biotinylated anti-CD45 antibody. They were then incubated with magnetic beads conjugated to streptavidin (Thermo MagnaBind) and depleted using a Dynal magnet. The resulting lin-depleted tumor cells were stained with an anti-Muc16 mAb detected with a PE-conjugated secondary Ab. Muc16− positive and Muc16− negative cells were sorted using an ARIA FACS machine ran by the DIVA software. Cells were re-injected subcutaneously in the left flank of NOD/SCID mice for comparison of their tumorgenic potentials. Each cell type was injected into 10 mice. Each mouse received 75 cells. Representative pictures of tumors resulting from the injection of Muc16− (upper panel) and Muc16+(lower panel) cells are shown in FIG. 52B. No tumor grew after injection of the Muc16+cells, while 7 of the 10 mice injected with the Muc16− cells developed tumors."}, "PE13 breast tumor": {"tested_on": "PE13 breast tumor", "assay": "PE13 breast tumor recurrence study", "type": "in vivo, Nod-Scid mice", "settings": "taxol 15 mg/kg twice per week + 18R5 20 mg/kg once per week vs taxol + control antibody; taxol stopped at day 70", "method": "PE13 breast tumor recurrence study with 18R5 mAb: PE13 breast tumor cells were injected into Nod-Scid mice and allowed to grow until the tumors had reached approximately 100 mm^3. The animals were randomized into two groups (n=10) and given taxol (15 mg/kg, twice per week)+Control antibody (black squares) or the same dose of taxol+Anti-FZD 18R5 (gray open circles). Antibodies were dosed at 20 mg/kg once per week. Taxol treatments were stopped at day 70 and the antibody treatments continued."}, "FZD8 binding to Wnt3A": {"molecular_target": "T1, FZD8 binding to Wnt3A (Homo sapiens, UniProt Q9H461)", "T1 construct": "amino acids 1-157 of FZD8 linked in-frame to human IgG1 Fc", "T1 sequence (Q9H461 28-157)": "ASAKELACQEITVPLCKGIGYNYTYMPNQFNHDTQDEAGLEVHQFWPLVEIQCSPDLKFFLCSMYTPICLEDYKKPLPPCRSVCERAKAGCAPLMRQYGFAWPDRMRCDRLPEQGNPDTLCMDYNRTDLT", "assay": "Blocking of FZD8-Fc binding to Wnt3A (protein A depletion, STF293 reporter readout)", "type": "biochemical", "settings": "co-incubation with FZD8-Fc and Wnt3A conditioned medium, 2 hrs at 4° C., protein A beads removed", "method": "To assess the ability of 18R8 to block the binding of FZD to Wnt, 2 μl of 1.32 μg/μl soluble FZD8-Fc containing the Fri domain (amino acids 1-157 of FZD8 linked in-frame to human IgG1 Fc) was added to culture medium to bind Wnt3A (added as 20 μl of Wnt3A conditioned medium) either alone or in the presence of the 18R8 IgG antibody (added as 4 μl of 3.71 μg/μl). The mixtures were incubated either alone or in the presence of Protein A sepharose beads (GE Healthcare products; 20 μl of 50% solution in PBS) for two hrs at 4° C. After the incubation, the protein A beads (and any proteins complexed to the protein A beads) in each sample were removed by spinning and the supernatant was assayed for ability to induce 8×TCF luciferase activity. The supernatant was added to STF293 cells, which stably express 8×TCF (eight copies of the TCF-binding domain upstream of a firefly luciferase reporter gene) to measure canonical Wnt signaling levels and which were cultured in DMEM supplemented with antibiotics and 10% FCS. Eighteen hours following treatment of the STF293 cells, luciferase levels were measured using a dual luciferase assay kit (Promega; Madison, Wis.)."}}}
{"molecule": "18R5: human anti-FZD antibody; VH SEQ ID NO:10 (as 18R8), VL SEQ ID NO:14; binds FZD1, 2, 5, 7, 8 (antibody, V domains shown, 18R5/18R8 heavy chain variable region (VH); 18R5 light chain variable region (VL)) VH: EVQLVESGGGLVQPGGSLRLSCAASGFTFSHYTLSWVRQAPGKGLEWVSVISGDGSYTYYADSVKGRFTISSDNSKNTLYLQMNSLRAEDTAVYYCARNFIKYVFANWGQGTLVTVSS VL: DIELTQPPSVSVAPGQTARISCSGDNIGSFYVHWYQQKPGQAPVLVIYDKSNRPSGIPERFSGSNSGNTATLTISGTQAEDEADYYCQSYANTLSLVFGGGTKLTVLG", "values": [{"measurement": "alcian blue staining", "setting": "PN4 tumors", "result": "clear increase in alcian blue staining"}, {"measurement": "xenograft tumor growth", "setting": "[1]", "result": "inhibits OMP-LU33 xenograft tumor growth"}, {"measurement": "ACTA2 expression", "setting": "ACTA2", "result": "decreased levels of ACTA2 expression"}, {"measurement": "tumorgenicity of 18R5-induced Muc16+ cells", "setting": "OMP-PN13 cells", "result": "non-tumorgenic"}, {"measurement": "tumor regression and recurrence", "setting": "PE13 breast tumor", "result": "enhance the rate of tumor regression and to delay tumor recurrence"}]}
{"molecule": "18R8: human anti-FZD antibody from phage display; VH SEQ ID NO:10, VL SEQ ID NO:12; binds FZD1, 2, 5, 7, 8 (antibody, V domains shown, 18R5/18R8 heavy chain variable region (VH); 18R8 light chain variable region (VL)) VH: EVQLVESGGGLVQPGGSLRLSCAASGFTFSHYTLSWVRQAPGKGLEWVSVISGDGSYTYYADSVKGRFTISSDNSKNTLYLQMNSLRAEDTAVYYCARNFIKYVFANWGQGTLVTVSS VL: DIELTQPPSVSVAPGQTARISCSGDKLGKKYASWYQQKPGQAPVLVIYEKDNRPSGIPERFSGSNSGNTATLTISGTQAEDEADYYCSSFAGNSLEVFGGGTKLTVLG", "values": [{"measurement": "blocking of FZD8 binding to Wnt3A", "setting": "FZD8 binding to Wnt3A", "result": "blocked the ability of FZD8 to bind to Wnt3A"}]}
